From PMC5951830, “CO2-sensitive tRNA modification associated with human mitochondrial disease” (Nature Communications, 2018)

Key:
purified protein [1] = substrate: Nc1ncnc2c1ncn2[C@@H]1O[C@H](COP(=O)(O)OP(=O)(O)OP(=O)(O)O)[C@@H](O)[C@H]1O; assay: purified protein; assay type: biochemical, Homo sapiens; settings: YRDC alone, Tricine-NaOH pH 8.5, 10 mM MgCl2, [14C]L-Thr, NaHCO3, 37 °C, ATP 0.1-0.8 mM
purified protein [2] = substrate: O=C(O)O; assay: purified protein; settings: YRDC alone, Tricine-NaOH pH 8.5, 10 mM MgCl2, ATP, L-Thr, 37 °C, bicarbonate 10-80 mM

B1: YRDC (Homo sapiens) (protein)
chain: SVGLSEGPAGSRSGRLFRPPSPAPAAPGARLLRLPGSGAVQAASPERAGWTEALRAAVAELRAGAVVAVPTDTLYGLACAASCSAALRAVYRLKGRSEAKPLAVCLGRVADVYRYCRVRVPEGLLKDLLPGPVTLVMERSEELNKDLNPFTPLVGIRIPDHAFMQDLAQMFEGPLALTSANLSSQASSLNVEEFQDLWPQLSLVIDGGQIGDGQSPECRLGSTVVDLSVPGKFGIIRPGCALESTTAILQQKYGLLPSHASYL
notes: recombinant from E. coli Rosetta(DE3), His6-SUMO tag removed
Km (purified protein [1]): 0.17 ± 0.22 mM | kcat (purified protein [1]): (3.9 ± 2.23) × 10^-2 s^-1 | Km (purified protein [2]): 13 mM
